Bounds are passed on as bounds.

In this assay the target is N1-MI15-WT (recombinant soluble NA head of A/Michigan/45/2015 fused to hVASP) (influenza A virus A/Michigan/45/2015). Briefly: BLI.

B1: CD6 IgG (antibody, V domains shown)
VH: QVKLQESGGGLVQPKGSLKLSCAASGFTFNTYAMNWVRQAPGKGLEWVARIRSKSNNYATFYADSVKDRFTISRDDSQSMLYLQMHNLKTDDTAMYYCVRPSIYYYASGYLDVWGAGTTVTVSS
VL: QIVLSQSPAILSASPGEKVTMTCRTSSSVSYMHWYQQKPGSSPKPWIYATSNLASGVPFRFSGSGSGTSYSLTISRVEAEDAATYYCQQWNSNPPTFGGGTKLEIK
On to B1, for which the Kd came to 1.3 nM.

B2: 1G01 IgG (antibody, V domains shown)
VH: EVQLVESGGRALRPGGSLRLSCAASGFKFDDYAMSWVRQVPGKGLEFVSGLNWNGDITAYTDSVKGRFTVSRDNAKNSLYLHINSPKPEDTALYYCARTSSWGDYTRGPEPKITWYFDLWGRGTLVTVSS
VL: DIQLTQSPSFLSASVGDRITITCRASQGIDGYLAWYQQRPGKAPNLLIYAASLLQSGVPSRFSGSGYGTEFTLTISSLQPEDFATYYCQHLDSYPLFTFGPGTKVDIK
As to B2, the Kd is below 0.001 nM.

For the origin of these results see publication PMC8983682 (2022).
